Among the targets are OsChz1-C mutant 2M (rice (Oryza sativa)); OsChz1-C mutant 1M (rice (Oryza sativa)); OsChz1-C mutant 3M (rice (Oryza sativa)).
What all share (assay): ITC
On the technique in general: In ITC the heat of successive injections is recorded.

B1: Arabidopsis histone H2A (HTA1)-H2B (HTB1) dimer (complex)
chain 1: MAGRGKTLGSGGAKKATSRSSKAGLQFPVGRIARFLKAGKYAERVGAGAPVYLAAVLEYLAAEVLELAGNAARDNKKTRIVPRHIQLAVRNDEELSKLLGDVTIANGGVMPNIHNLLLPKKAGASKPQED
chain 2: MAPRAEKKPAEKKTAAERPVEENKAAEKAPAEKKPKAGKKLPPKEAGDKKKKRSKKNVETYKIYIFKVLKQVHPDIGISSKAMGIMNSFINDIFEKLAQESSKLARYNKKPTITSREIQTAVRLVLPGELAKHAVSEGTKAVTKFTSS
Usually Kd stands for the free concentration of one partner at which half of the binding sites on the other are occupied at equilibrium, for simple one-to-one binding. Read a high Kd as weaker binding. On to B1, for which the figures for the Kd with OsChz1-C mutant 2M, in the experiment with OsChz1-C mutant 1M and with OsChz1-C mutant 3M were 259 nM, 150 nM and 146 nM, respectively.

The values are drawn from article PMC7658359 (2020).
